T1: Gal80 (UniProt P04387 1-435, limits assumed)
T1 construct: Cy3/Cy5 or otherwise fluorescently labelled on arrays; immobilised in SPR and ELISA
T1 sequence (looked up): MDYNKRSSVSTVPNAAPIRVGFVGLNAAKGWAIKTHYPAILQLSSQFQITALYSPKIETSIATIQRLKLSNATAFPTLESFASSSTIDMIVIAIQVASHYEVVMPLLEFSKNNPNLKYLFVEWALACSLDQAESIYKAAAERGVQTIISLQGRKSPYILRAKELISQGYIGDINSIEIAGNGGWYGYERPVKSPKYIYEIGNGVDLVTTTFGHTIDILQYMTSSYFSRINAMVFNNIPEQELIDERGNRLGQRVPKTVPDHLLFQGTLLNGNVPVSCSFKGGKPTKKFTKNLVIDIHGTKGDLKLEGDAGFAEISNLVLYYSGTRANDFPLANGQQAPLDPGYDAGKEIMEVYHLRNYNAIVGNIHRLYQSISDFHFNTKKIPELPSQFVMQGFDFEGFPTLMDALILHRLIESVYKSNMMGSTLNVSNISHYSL

B1: BP1 on dsDNA (peptide)
peptide: GTEKGTSGWLKTGSC
modifications: chain 1 pos 15: Cys thiol joined via SMCC maleimide to an amine-modified cytosine of the double-stranded DNA linker, which the letters cannot carry
notes: also called BP1 alone conjugated to DNA linker
B2: BP2 on dsDNA (peptide)
peptide: EGEWTEGKLSLRGSC
modifications: chain 1 pos 15: Cys thiol joined via SMCC maleimide to an amine-modified cytosine of the double-stranded DNA linker, which the letters cannot carry
notes: also called BP2 alone conjugated to DNA linker
B3: BP2 variant EGEITEGKKSKIGSC (peptide)
peptide: EGEITEGKKSKIGSC
notes: Made in place on a glass slide by light-directed synthesis

These binders were tested against T1, Gal80 (assay: SPR with gal80 immobilised on the chip; Kd from on and off rates).
Work on B1 yielded a Kd of 0.482 µM. In the case of B2, the Kd is reported as 0.982 µM.

What follows are binders tested against T1, Gal80 (assay: light-directed peptide array, 25 pM labelled GAL80 with 1 mg/mL E. coli lysate; against template BP2).
Experimental: Variant peptides in the array were designed to contain both invariable and variable positions. Invariable positions were coupled using standard Fmoc solid-phase synthesis protocols. Briefly, the Fmoc protecting group was removed with 20% piperidine in DMF for 20 minutes. After deprotection, the next Fmoc amino acid was coupled to the N-terminus of the peptide chain (0.1 M Fmoc amino acid, 0.1 M HATU, 0.4 M DIPEA in DMF). Amino acid coupling times were typically 60 minutes. Variable positions in the peptide were coupled using light-directed chemistry. First, the N-terminal Fmoc group was removed from all peptides using 20% piperidine in DMF and the photolabile protecting group MeNPOC—Cl was coupled to the liberated N-terminal amines for 30 minutes. The array was then immersed in photolysis solution containing 30% β-mercaptoethanol, 7% DIPEA in acetonitrile. A photolithographic mask was projected on the substrate using a Digital Mirror Device, to selectively remove the MeNPOC protecting group in the illuminated regions. The substituted FMOC amino acid was added and allowed to couple to the selectively deprotected regions. After coupling, photodeprotection was repeated for different regions on the array and the next amino acid was coupled. This photodeprotection/coupling cycle was repeated for all substituted amino acids at a particular position in the peptide. After all peptides on the array are grown to the desired length a final side-chain deprotection is done using 95% TFA, 2.5% TIPS, 2.5% H₂O for 1 hour.
The chemically diverse set of 10 amino acids {I, D, W, L, E, G, T, S, K, R} were selected as the amino acids to substitute into the four variable positions for a total of 10,000 unique variant peptides. Three replicates were included in the array to produce a total of 30,000 array features. The variant array (including the lead peptide) was synthesized using light-directed synthesis described above.
In the case of EGEITEGKGSKKGSC [BP2 variant EGEITEGKGSKKGSC], the “Fold Enhancement” value is reported as 9.87 fold. For EGEITEGKLSKKGSC [BP2 variant EGEITEGKLSKKGSC], the “Fold Enhancement” value was 9.72 fold. In the case of EGEITEGKKSKLGSC [BP2 variant EGEITEGKKSKLGSC], the “Fold Enhancement” value is reported as 11.1 fold. With EGEDTEGKKSKTGSC [BP2 variant EGEDTEGKKSKTGSC] the “Fold Enhancement” value was 10.2 fold. For EGEWTEGKKSKTGSC [BP2 variant EGEWTEGKKSKTGSC], the “Fold Enhancement” value was 10.5 fold. For EGEKTEGKKSKEGSC [BP2 variant EGEKTEGKKSKEGSC], the “Fold Enhancement” value was 9.7 fold. For EGEDTEGKKSKLGSC [BP2 variant EGEDTEGKKSKLGSC], the “Fold Enhancement” value was 10.4 fold. With EGEDTEGKKSKRGSC [BP2 variant EGEDTEGKKSKRGSC] the “Fold Enhancement” value was 10.4 fold. With EGEWTEGKKSKGGSC [BP2 variant EGEWTEGKKSKGGSC] the “Fold Enhancement” value was 11.1 fold. With EGEITEGKKSKTGSC [BP2 variant EGEITEGKKSKTGSC] the “Fold Enhancement” value was 10.6 fold. For EGEITEGKKSKGGSC [BP2 variant EGEITEGKKSKGGSC], the “Fold Enhancement” value was 10.8 fold. EGEWTEGKKSKLGSC [BP2 variant EGEWTEGKKSKLGSC] was tested, and the “Fold Enhancement” value was 10.7 fold. In the case of EGEKTEGKKSKLGSC [BP2 variant EGEKTEGKKSKLGSC], the “Fold Enhancement” value is reported as 9.81 fold. In the case of EGEKTEGKKSKTGSC [BP2 variant EGEKTEGKKSKTGSC], the “Fold Enhancement” value is reported as 8.5 fold. EGEDTEGKKSKEGSC [BP2 variant EGEDTEGKKSKEGSC] was tested, and the “Fold Enhancement” value was 10.1 fold. For EGEWTEGKKSKIGSC [BP2 variant EGEWTEGKKSKIGSC], the “Fold Enhancement” value was 10.4 fold. With EGEITEGKKSKRGSC [BP2 variant EGEITEGKKSKRGSC] the “Fold Enhancement” value was 10.5 fold. With EGEDTEGKKSKIGSC [BP2 variant EGEDTEGKKSKIGSC] the “Fold Enhancement” value was 10.4 fold. For EGEWTEGKKSKEGSC [BP2 variant EGEWTEGKKSKEGSC], the “Fold Enhancement” value was 10.7 fold. In the case of EGEITEGKKSKEGSC [BP2 variant EGEITEGKKSKEGSC], the “Fold Enhancement” value is reported as 10.9 fold. For EGEWTEGKKSKRGSC [BP2 variant EGEWTEGKKSKRGSC], the “Fold Enhancement” value was 11 fold. For EGEKTEGKKSKGGSC [BP2 variant EGEKTEGKKSKGGSC], the “Fold Enhancement” value was 9.24 fold. For EGEDTEGKKSKGGSC [BP2 variant EGEDTEGKKSKGGSC], the “Fold Enhancement” value was 10.8 fold. In the case of EGEITEGKKSKSGSC [BP2 variant EGEITEGKKSKSGSC], the “Fold Enhancement” value is reported as 9.91 fold. In the case of B3, the “Fold Enhancement” value is reported as 11.3 fold.

These binders were tested against T2, pooled human transferrin (Sigma), biotinylated (human, UniProt P02787 20-698, biotinylated at amines with NHS-LC-LC-Biotin) (assay: SPR (Biacore A-100), biotinylated transferrin captured on Neutravidin, unpurified peptide injected for 60 s [b]).
T2 construct: Captured on Neutravidin on a CM5 chip (Biacore A-100)
T2 sequence (P02787 20-698 limits assumed): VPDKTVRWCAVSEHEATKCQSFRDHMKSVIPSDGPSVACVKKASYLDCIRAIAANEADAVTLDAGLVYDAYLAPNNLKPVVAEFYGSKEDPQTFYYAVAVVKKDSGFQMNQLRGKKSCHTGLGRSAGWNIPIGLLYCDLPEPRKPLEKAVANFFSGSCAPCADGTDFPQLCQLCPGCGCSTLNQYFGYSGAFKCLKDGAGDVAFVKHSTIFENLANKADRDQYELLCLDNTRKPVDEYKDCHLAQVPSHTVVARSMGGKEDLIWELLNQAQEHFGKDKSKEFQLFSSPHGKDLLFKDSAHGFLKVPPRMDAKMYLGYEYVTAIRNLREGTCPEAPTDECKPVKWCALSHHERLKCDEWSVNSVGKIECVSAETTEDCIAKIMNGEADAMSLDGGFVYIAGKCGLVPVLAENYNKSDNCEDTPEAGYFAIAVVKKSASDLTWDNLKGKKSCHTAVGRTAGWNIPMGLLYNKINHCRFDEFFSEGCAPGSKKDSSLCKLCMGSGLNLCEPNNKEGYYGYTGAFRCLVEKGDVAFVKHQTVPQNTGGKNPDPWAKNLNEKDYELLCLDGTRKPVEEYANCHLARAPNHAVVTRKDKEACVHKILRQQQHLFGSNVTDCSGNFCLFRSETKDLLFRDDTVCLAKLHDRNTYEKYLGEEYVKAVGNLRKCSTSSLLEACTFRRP
NIRMLLRFTVFPAQKLIGSC (Unpurified library peptide) [transferrin binding peptide of FIG. 60B]: binds.

The binders below were run against T2, pooled human transferrin (Sigma), … (assay: SPR (Biacore A-100), biotinylated transferrin captured on Neutravidin, unpurified peptide injected for 60 s [c]).
Source text: (§1) A Biacore A-100 Surface Plasmon Resonance (SPR) system was used to measure the binding response of each peptide to several different target proteins immobilized on a gold surface. The A-100 has four different flow cells and within each flow cell are five addressable spots. Therefore four different proteins and a negative control reference can be used per flow cell. Depending on the purpose of the assay, up to 16 different target proteins can be immobilized on a single SPR chip. The instrument is equipped to evaluate up to 10 384-well plates unattended and can process approximately four 384-well plates per day. Sensorgrams are collected from each immobilized protein, so a binding profile for each analyte versus each of the protein targets is generated for each injection. Target proteins were immobilized using a biotin capture approach in which a CM5 chip was activated using standard amine coupling chemistry and Neutravidin was covalently coupled to the chip. Each biotinylated protein was injected over a single spot and the amount of protein captured was measured.
WMDDIDAPQDEWWVFHHGSC (Unpurified library peptide) [transferrin binding peptide of FIG. 60C]: binds.

These binders were tested against T2, pooled human transferrin (Sigma), … (assay: SPR (Biacore A-100), biotinylated transferrin captured on Neutravidin, unpurified peptide injected for 60 s [d]).
DFLWSKSGILSHASWNHGSC (Unpurified library peptide) [transferrin binding peptide of FIG. 60D]: binds.

What follows are binders tested against T2, pooled human transferrin (Sigma), … (assay: SPR (Biacore A-100), biotinylated transferrin captured on Neutravidin, unpurified peptide injected for 60 s [f]).
KMRTITYYHLQAILKQRGSC (Unpurified library peptide) [transferrin binding peptide of FIG. 60F]: binds.

These binders were tested against T2, pooled human transferrin (Sigma), … (assay: SPR (Biacore A-100), biotinylated transferrin captured on Neutravidin, unpurified peptide injected for 60 s [g]).
DNSRRSAKQRIFMHVDLGSC (Unpurified library peptide) [transferrin binding peptide of FIG. 60G]: binds.

The binders below were run against T2, pooled human transferrin (Sigma), … (assay: SPR (Biacore A-100), biotinylated transferrin captured on Neutravidin, unpurified peptide injected for 60 s [i]).
Source text: as §1
AMMRMDMAGLNKIVFHQGSC (Unpurified library peptide) [transferrin binding peptide of FIG. 60I]: binds.

The binders below were run against T2, pooled human transferrin (Sigma), … (assay: SPR (Biacore A-100), biotinylated transferrin captured on Neutravidin, unpurified peptide injected for 60 s [j]).
DRDTPWETTNKTEEGIEGSC (Unpurified library peptide) [transferrin binding peptide of FIG. 60J]: binds.

The binders below were run against T2, pooled human transferrin (Sigma), … (assay: SPR (Biacore A-100), biotinylated transferrin captured on Neutravidin, unpurified peptide injected for 60 s [k]).
QENDQQSFGLGGMMGQAGSC (Unpurified library peptide) [transferrin binding peptide of FIG. 60K]: binds.

These binders were tested against T2, pooled human transferrin (Sigma), … (assay: SPR (Biacore A-100), biotinylated transferrin captured on Neutravidin, unpurified peptide injected for 60 s [l]).
Source text: as §1
TEDNDYMVVSMVVTMEPGSC (Unpurified library peptide) [transferrin binding peptide of FIG. 60L]: binds.

From patent publication US20120065123A1 (published 2012)
